# Data as given in publication PMC4899250 (Journal of neurochemistry, 2016).
# Biological target: the molecule itself
# Assay: native MS
protein,measurement,value
Ac-AGIGDTPSLEDEAAGHVTQARMVSKSKDGTGSDDKKAKG-NH2 [tau^106-144],stoichiometry N,2
